Laboratory results: the supplement of paper PMC10567573

B1: GALNT9 (parent)
chain: FTQSGPIVSRATGRCLEVEMSKDA
B2: RPAIN (parent)
chain: ISEYEKSLQFDEKCLSIMLAEWEA

Variants of: B1
Assay: protein stability index of a GFP-peptide fusion (GPS, HEK-293T) (PSI 1-6); higher = more stable
Details: c terminus: a fixed tail appended
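Also: lentivirally expressed fusions sorted by FACS into six bins by GFP to DsRed ratio, PSI derived from sequencing read proportions per bin multiplied by bin number.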

Compared with FTQSGPIVSRATGRCLEVEMSYDA [K22Y], FTQSGPIVSRATGRCLEVEMSCDA [K22C] is lower in protein stability index: 2.62 for the first, 2.56 for the second.

Compared with FTQSGPIVSRATGRCLEVEMSLDA [K22L], FTQSGPIVSRATGRCLEVEMSPDA [K22P] is higher in protein stability index: 1.95 for the first, 3.13 for the second.

First: FTQSGPIVSRATGRCLEVEMSDDA [K22D]
Second: FTQSGPIVSRATGRCLEVEMSQDA [K22Q]
The protein stability index of the first is higher: 3.38 for the first, 2.26 for the second.

Compared with FTQSGPIVSRATGRCLEVEMSGDA [K22G], FTQSGPIVSRATGRCLEVEMSHDA [K22H] is lower in protein stability index: 2.7 for the first, 1.76 for the second.

First: FTQSGPIVSRATGRCLEVEMSNDA [K22N]
Second: FTQSGPIVSRATGRCLEVEMSSDA [K22S]
The protein stability index of the first is higher: 2.74 for the first, 2.12 for the second.

First: FTQSGPIVSRATGRCLEVEMSRDA [K22R]
Second: FTQSGPIVSRATGRCLEVEMSIDA [K22I]
The protein stability index of the first is lower: 1.32 for the first, 1.71 for the second.

Compared with FTQSGPIVSRATGRCLEVEMSKKA [D23K], FTQSGPIVSRATGRCLEVEMSKPA [D23P] is higher in protein stability index: 1.84 for the first, 1.92 for the second.

Compared with FTQSGPIVSRATGRCLEVEMSKQA [D23Q], FTQSGPIVSRATGRCLEVEMSKCA [D23C] is lower in protein stability index: 1.95 for the first, 1.51 for the second.

First: FTQSGPIVSRATGRCLEVEMSKNA [D23N]
Second: FTQSGPIVSRATGRCLEVEMSKEA [D23E]
The protein stability index of the first is lower: 2.42 for the first, 2.44 for the second.

First: FTQSGPIVSRATGRCLEVEMSKSA [D23S]
Second: FTQSGPIVSRATGRCLEVEMSKYA [D23Y]
The protein stability index of the first is higher: 2.67 for the first, 2.52 for the second.

First: FTQSGPIVSRATGRCLEVEMSKLA [D23L]
Second: FTQSGPIVSRATGRCLEVEMSKGA [D23G]
The protein stability index of the first is higher: 2.07 for the first, 1.79 for the second.

Compared with FTQSGPIVSRATGRCLEVEMSKIA [D23I], FTQSGPIVSRATGRCLEVEMSKHA [D23H] is higher in protein stability index: 1.57 for the first, 2.3 for the second.

Compared with FTQSGPIVSRATGRCLEVEMSKVA [D23V], FTQSGPIVSRATGRCLEVEMSKTA [D23T] is lower in protein stability index: 2.02 for the first, 1.84 for the second.

First: FTQSGPIVSRATGRCLEVEMSKDP [A24P]
Second: FTQSGPIVSRATGRCLEVEMSKDF [A24F]
The protein stability index of the first is higher: 3.19 for the first, 1.34 for the second.

Going from FTQSGPIVSRATGRCLEVEMSKDE [A24E] to FTQSGPIVSRATGRCLEVEMSKDD [A24D], the protein stability index falls from 2.64 to 2.51.

First: FTQSGPIVSRATGRCLEVEMSKDH [A24H]
Second: FTQSGPIVSRATGRCLEVEMSKDN [A24N]
The protein stability index of the first is lower: 2.43 for the first, 2.78 for the second.

Going from FTQSGPIVSRATGRCLEVEMSKDL [A24L] to FTQSGPIVSRATGRCLEVEMSKDR [A24R], the protein stability index falls from 2.35 to 2.2.

Compared with FTQSGPIVSRATGRCLEVEMSKDT [A24T], FTQSGPIVSRATGRCLEVEMSKDM [A24M] is lower in protein stability index: 2.3 for the first, 1.51 for the second.

Going from FTQSGPIVSRATGRCLEVEMSKDI [A24I] to FTQSGPIVSRATGRCLEVEMSKDY [A24Y], the protein stability index falls from 1.89 to 1.75.

Compared with FTQSGPIVSRATGRCLEVEMSKDC [A24C], FTQSGPIVSRATGRCLEVEMSKDV [A24V] is lower in protein stability index: 2.34 for the first, 1.68 for the second.

Variants of: B2
Assay: as above
Details: c terminus: a fixed tail appended

First: ISEYEKSLQFDEKVLSIMLAEWEA [C14V]
Second: ISEYEKSLQFDEKNLSIMLAEWEA [C14N]
The protein stability index of the first is lower: 1.75 for the first, 1.96 for the second.

Going from ISEYEKSLQFDEKDLSIMLAEWEA [C14D] to ISEYEKSLQFDEKCRSIMLAEWEA [L15R], the protein stability index rises from 2.16 to 4.1.

Going from ISEYEKSLQFDEKCFSIMLAEWEA [L15F] to ISEYEKSLQFDEKCKSIMLAEWEA [L15K], the protein stability index rises from 2.21 to 4.06.

Compared with ISEYEKSLQFDEKCDSIMLAEWEA [L15D], ISEYEKSLQFDEKCNSIMLAEWEA [L15N] is lower in protein stability index: 4.09 for the first, 3.92 for the second.

Going from ISEYEKSLQFDEKCGSIMLAEWEA [L15G] to ISEYEKSLQFDEKCPSIMLAEWEA [L15P], the protein stability index rises from 3.62 to 4.02.

First: ISEYENSLQFDEKCLSIMLAEWEA [K6N]
Second: ISEYELSLQFDEKCLSIMLAEWEA [K6L]
The protein stability index of the first is higher: 1.91 for the first, 1.2 for the second.

Going from ISEYEASLQFDEKCLSIMLAEWEA [K6A] to ISEYERSLQFDEKCLSIMLAEWEA [K6R], the protein stability index rises from 2.2 to 2.39.

Going from ISEYEGSLQFDEKCLSIMLAEWEA [K6G] to ISEYEESLQFDEKCLSIMLAEWEA [K6E], the protein stability index rises from 1.15 to 1.78.

Compared with ISEYESSLQFDEKCLSIMLAEWEA [K6S], ISEYEKSLQFDEKCLSIMLAEWRA [E23R] is higher in protein stability index: 1.34 for the first, 1.85 for the second.

Going from ISEYEKSLQFDEKCLSIMLAEWFA [E23F] to ISEYEKSLQFDEKCLSIMLAEWHA [E23H], the protein stability index rises from 2.53 to 2.59.

First: ISEYEKSLQFDEKCLSIMLAEWNA [E23N]
Second: ISEYEKSLQFDEKCLSIMLAEWTA [E23T]
The protein stability index of the first is higher: 2.14 for the first, 1.76 for the second.

First: ISEYEKSLQFDEKCLSIMLAEWAA [E23A]
Second: ISEYEKSLQFDEKCLSIMLAEWWA [E23W]
The protein stability index of the first is higher: 3.07 for the first, 2.83 for the second.

First: ISEYEKSLQFDEKCLSIMLAEWYA [E23Y]
Second: ISEYEKSLQFDEKCLSIMLAEWDA [E23D]
The protein stability index of the first is lower: 1.61 for the first, 1.62 for the second.

Compared with ISEYEKSLQFDEKCLSIMLAEWLA [E23L], ISEYEKSLQFDEKCLSIMLAPWEA [E21P] is higher in protein stability index: 1.83 for the first, 2.73 for the second.

Going from ISEYEKSLQFDEKCLSIMLAWWEA [E21W] to ISEYEKSLQFDEKCLSIMLAYWEA [E21Y], the protein stability index falls from 2.81 to 1.93.

Going from ISEYEKSLQFDEKCLSIMLAKWEA [E21K] to ISEYEKSLQFDEKCLGIMLAEWEA [S16G], the protein stability index rises from 1.47 to 2.34.

First: ISEYEKSLQFDEKCLLIMLAEWEA [S16L]
Second: ISEYEKSLQFDEKCLKIMLAEWEA [S16K]
The protein stability index of the first is lower: 2.1 for the first, 2.17 for the second.

Compared with ISEYEKSLQFDEKCLWIMLAEWEA [S16W], ISEYEKSLQFDEKCLMIMLAEWEA [S16M] is lower in protein stability index: 1.86 for the first, 1.49 for the second.

First: ISEYEKSLQFDEKCLDIMLAEWEA [S16D]
Second: ISEYEKSLQFDEKCLIIMLAEWEA [S16I]
The protein stability index of the first is lower: 2.08 for the first, 2.84 for the second.

First: ISEYEKSLQFDEKCLFIMLAEWEA [S16F]
Second: ISEYEKSLQFDEKCLEIMLAEWEA [S16E]
The protein stability index of the first is higher: 2.09 for the first, 1.96 for the second.

Compared with ISEYEKSLQFDEKCLSIMLAEKEA [W22K], ISEYEKSLQFDEKCLSIMLAEFEA [W22F] is lower in protein stability index: 4.47 for the first, 2.79 for the second.

Going from ISEYEKSLQFDEKCLSIMLAEREA [W22R] to ISEYEKSLQFDEKCLSIMLAEYEA [W22Y], the protein stability index falls from 3.37 to 1.69.

First: ISEYEKSLQFDEKCLSIMLAEPEA [W22P]
Second: ISEYEKSLQFDEKCLSIMLAEHEA [W22H]
The protein stability index of the first is lower: 3.93 for the first, 3.98 for the second.

First: ISEYEKSLQFDEKCLSIMLAEIEA [W22I]
Second: ISEYEKSLQFDEKCLSIMLAEDEA [W22D]
The protein stability index of the first is lower: 1.68 for the first, 3.88 for the second.

Compared with ISEYEKSLQFDEKCLSIMLAEVEA [W22V], ISEYEKSLQFDEKCLSIMLAEGEA [W22G] is higher in protein stability index: 1.52 for the first, 1.72 for the second.

Compared with ISEYEKSLQFDEKCLSIMLFEWEA [A20F], ISEYEKSLQFDEKCLSIMLLEWEA [A20L] is lower in protein stability index: 1.54 for the first, 1.4 for the second.

Compared with ISEYEKSLQFDEKCLSIMLVEWEA [A20V], ISEYEKSLQFDEKCLSIMLDEWEA [A20D] is higher in protein stability index: 1.8 for the first, 1.91 for the second.
